# System: target antigen-expressing cell line
# Assay: Jurkat NFAT-GFP assay, coculture with target cell lines expressing the respective target antigen (summary Table 10A)
# Assay type: cell-based, human
# Parameters: key: The signs +/−, +, 2+ etc. after the name of the cell lines indicate the relative degree of positivity on the Jurkat-NFAT-GFP assay as measured by the % GFP positive cells; +: relative degree of positivity on the Jurkat-NFAT-GFP assay as measured by the % GFP positive cells; 2+: relative degree of positivity on the Jurkat-NFAT-GFP assay as measured by the % GFP positive cells
# How it was run: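 Readout is % GFP+ cells by FACS, graded +/− to 2+ relative to parental reporter cells. Jurkat-NFAT-GFP cells stably transduced with SIR constructs (puromycin-selected) were mixed with target-antigen-expressing cell lines at roughly 1:2 effector:target and cocultured ~4–18 h.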
Molecule,NFAT-GFP ASSAY Positive Cell lines (coculture with NALM6 cells),NFAT-GFP ASSAY Positive Cell lines (coculture with RAJI cells),further results
"121416-D03 (protein, Synthetic Immune Receptor (SIR)) MALPVTALLLPLALLLHAARPLEQKLISEEDLGSGDRPDPAVYQLRDSKSSDKSVCLFTDFDSQTNVSQSKDSDVYITDKCVLDMRSMDFKSNSAVAWSNKSDFACANAFNNSIIPEDTFFPSPESSCDVKLVEKSFETDTNLNFQNLSVIGFRILLLKVAGFNLLMTLRLWSSSSRAKRSGSGVKQTLNFDLLKLAGDVESNPGPTSMALPVTALLLPLALLLHAARPDYIHVTQSPSSLSVSIGDRVTINCQTSQGVGSDLHWYQHKPGRAPKLLIHHASSVEDGVPSRFSGTGFHTSFNLTINDLQADDIGTYYCQVLQSFGRGSRLDTKGGGGSGGGGSGGGGSRAHLVQSGTAMKKPGASVRVSCQTSGYTFTAHILFWFRQAPGRGLEWVGWIKPQYGAVNFGGGFRDRVTLTRDVYREIAYMDIRGLKPDDTAVYYCARDRSYGDSSWALDAWGQGTTVVVSATRGKPIPNPLLGLDSTGSGEDLKNVFPPEVAVFEPSEAEISHTQKATLVCLATGFYPDHVELSWWVNGKEVHSGVCTDPQPLKEQPALNDSRYCLSSRLRVSATFWQNPRNHFRCQVQFYGLSENDEWTQDRAKPVTQIVSAEAWGRADCGFTSESYQQGVLSATILYEILLGKATLYAVLVSALVLMAMVKRKDSRGRAKRSGSGATNFSLLKQAGDVEENPGPSRGHMTEYKPTVRLATRDDVPRAVRTLAAAFADYPATRHTVDPDRHIERVTELQELFLTRVGLDIGKVWVADDGAAVAVWTTPESVEAGAVFAEIGPRMAELSGSRLAAQQQMEGLLAPHRPKEPAWFLATVGVSPDHQGKGLGSAVVLPGVEAAERAGVPAFLETSAPRNLPFYERLGFTVTADVEVPEGPRTWCMTRKPGA",,,"NFAT-GFP ASSAY Positive Cell lines (coculture with HL2-3 cells): HL2-3 (+/−),; NFAT-GFP ASSAY Positive Cell lines (coculture with TF228.1.1.6 cells): TF228.1.1.6 (+)"
071417-W08 (protein) MALPVTALLLPLALLLHAARPLEGKPIPNPLLGLDSTGSGEDLKNVFPPEVAVFEPSKAEIAHTQKATLVCLATGFYPDHVELSWWVNGKEVHSGVCTDPQPLKEQPALNDSRYCLSSRLRVSATFWQNPRNHFRCQVQFYGLSENDEWTQDRAKPVTQIVSAEAWGRADCGITSASYHQGVLSATILYEILLGKATLYAVLVSALVLMAMVKRKDSRGRAKRSGSGATNFSLLKQAGDVEENPGPTSMALPVTALLLPLALLLHAARPDVMLTQTPLSLPVSLGDQASISCRSSQSILHSTGDTYLEWYLQKPGQSPKLLINKVSNRLSGVPDRFSGSGSGTDFTLKISRVEAEDLGVYYCFQGSHVPWTFGGGTKLEIKRADAAPTVSIFPGGGGSGGGGSGGGGSQVKLQQSGPSLVKPGASVKMSCKASGYTFTDFYMKWVKQSHGKSLEWIGDINPNIGDTFYNQKFKGKATLTVDKSSSTAYMQLNSLTSEDSAVYFCSVGYFDVWGAGTTVTVSSTREQKLISEEDGSGIQNPDPAVYQLRDSKSSDKSVCLFTDFDSQTNVSQSKDSDVYITDKCVLDMRSMDFKSNSAVAWSNKSDFACANAFNNSIIPEDTFFPSSDVPCDVKLVEKSFETDTNLNFQNLSVIGFRILLLKVAGFNLLMTLRLWSSRAKRSGSGVKQTLNFDLLKLAGDVESNPGPSRGHMTEYKPTVRLATRDDVPRAVRTLAAAFADYPATRHTVDPDRHIERVTELQELFLTRVGLDIGKVWVADDGAAVAVWTTPESVEAGAVFAEIGPRMAELSGSRLAAQQQMEGLLAPHRPKEPAWFLATVGVSPDHQGKGLGSAVVLPGVEAAERAGVPAFLETSAPRNLPFYERLGFTVTADVEVPEGPRTWCMTRKPGA,,,NFAT-GFP ASSAY Positive Cell lines (coculture with U266 cells): U266 (+/−)
"042916-B04 (protein, Synthetic Immune Receptor (SIR)) MALPVTALLLPLALLLHAARPLEGKPIPNPLLGLDSTGSGEDLKNVFPPEVAVFEPSKAEIAHTQKATLVCLATGFYPDHVELSWWVNGKEVHSGVCTDPQPLKEQPALNDSRYCLSSRLRVSATFWQNPRNHFRCQVQFYGLSENDEWTQDRAKPVTQIVSAEAWGRADCGITSASYHQGVLSATILYEILLGKATLYAVLVSALVLMAMVKRKDSRGRAKRSGSGATNFSLLKQAGDVEENPGPTSTMALPVTALLLPLALLLHAARPDIQMTQSPSSLSASVGDRVTITCTASLSVSSTYLHWYQQKPGSSPKLWIYSTSNLASGVPSRFSGSGSGTSYTLTISSLQPEDFATYYCHQYHRSPLTFGGGTKVEIKRGGGGSGGGGSGGGGSEVQLVESGGGLVQPGGSLRLSCAASGFSLTKYGVHWVRQAPGKGLEWVGVKWAGGSTDYNSALMSRFTISKDNAKNSLYLQMNSLRAEDTAVYYCARDHRDAMDYWGQGTLVTVSSTREQKLISEEDGSGIQNPDPAVYQLRDSKSSDKSVCLFTDFDSQTNVSQSKDSDVYITDKCVLDMRSMDFKSNSAVAWSNKSDFACANAFNNSIIPEDTFFPSSDVPCDVKLVEKSFETDTNLNFQNLSVIGFRILLLKVAGFNLLMTLRLWSSRAKRSGSGVKQTLNFDLLKLAGDVESNPGPSRGHMTEYKPTVRLATRDDVPRAVRTLAAAFADYPATRHTVDPDRHIERVTELQELFLTRVGLDIGKVWVADDGAAVAVWTTPESVEAGAVFAEIGPRMAELSGSRLAAQQQMEGLLAPHRPKEPAWFLATVGVSPDHQGKGLGSAVVLPGVEAAERAGVPAFLETSAPRNLPFYERLGFTVTADVEVPEGPRTWCMTRKPGA",,,NFAT-GFP ASSAY Positive Cell lines (coculture with U87-MG (U87MG) cells): U87MG
"110116-J04 (protein, Synthetic Immune Receptor (SIR)) MALPVTALLLPLALLLHAARPLEQKLISEEDLGSGDRPDPAVYQLRDSKSSDKSVCLFTDFDSQTNVSQSKDSDVYITDKCVLDMRSMDFKSNSAVAWSNKSDFACANAFNNSIIPEDTFFPSPESSCDVKLVEKSFETDTNLNFQNLSVIGFRILLLKVAGFNLLMTLRLWSSSSRAKRSGSGVKQTLNFDLLKLAGDVESNPGPTSMALPVTALLLPLALLLHAARPDIQMTQSPASLSASVGETVTIICRASVNIYSYLAWYQQKQGKSPQLLVYNAKILAEGVPSRFSGSGSGTQFSLKINSLQPEDFGSYYCQHHYGTFTFGSGTKLEIKRGGGGSGGGGSGGGGSQVQLKESGPGLVAPSQSLSITCTISGFSLTSYGVHWVRQPPGKGLEWLVVIWSDGSTTYNSALKSRLSISKDNSKSQVFLKMNSLQTDDTAIYYCASHYGSTLAFASWGHGTLVTVSAATRGKPIPNPLLGLDSTGSGEDLKNVFPPEVAVFEPSEAEISHTQKATLVCLATGFYPDHVELSWWVNGKEVHSGVCTDPQPLKEQPALNDSRYCLSSRLRVSATFWQNPRNHFRCQVQFYGLSENDEWTQDRAKPVTQIVSAEAWGRADCGFTSESYQQGVLSATILYEILLGKATLYAVLVSALVLMAMVKRKDSRGRAKRSGSGATNFSLLKQAGDVEENPGPSRGHMTEYKPTVRLATRDDVPRAVRTLAAAFADYPATRHTVDPDRHIERVTELQELFLTRVGLDIGKVWVADDGAAVAVWTTPESVEAGAVFAEIGPRMAELSGSRLAAQQQMEGLLAPHRPKEPAWFLATVGVSPDHQGKGLGSAVVLPGVEAAERAGVPAFLETSAPRNLPFYERLGFTVTADVEVPEGPRTWCMTRKPGA",(2+),"RAJI (2+), NALM6",
"090116-J01 (protein, Synthetic Immune Receptor (SIR)) MALPVTALLLPLALLLHAARPLEGKPIPNPLLGLDSTGSGEDLKNVFPPEVAVFEPSKAEIAHTQKATLVCLATGFYPDHVELSWWVNGKEVHSGVCTDPQPLKEQPALNDSRYCLSSRLRVSATFWQNPRNHFRCQVQFYGLSENDEWTQDRAKPVTQIVSAEAWGRADCGITSASYHQGVLSATILYEILLGKATLYAVLVSALVLMAMVKRKDSRGRAKRSGSGATNFSLLKQAGDVEENPGPTSMALPVTALLLPLALLLHAARPDIQMTQSPASLSASVGETVTIICRASVNIYSYLAWYQQKQGKSPQLLVYNAKILAEGVPSRFSGSGSGTQFSLKINSLQPEDFGSYYCQHHYGTFTFGSGTKLEIKRGGGGSGGGGSGGGGSQVQLKESGPGLVAPSQSLSITCTISGFSLTSYGVHWVRQPPGKGLEWLVVIWSDGSTTYNSALKSRLSISKDNSKSQVFLKMNSLQTDDTAIYYCASHYGSTLAFASWGHGTLVTVSAATREQKLISEEDGSGIQNPDPAVYQLRDSKSSDKSVCLFTDFDSQTNVSQSKDSDVYITDKCVLDMRSMDFKSNSAVAWSNKSDFACANAFNNSIIPEDTFFPSSDVPCDVKLVEKSFETDTNLNFQNLSVIGFRILLLKVAGFNLLMTLRLWSSRAKRSGSGVKQTLNFDLLKLAGDVESNPGPSRGHMTEYKPTVRLATRDDVPRAVRTLAAAFADYPATRHTVDPDRHIERVTELQELFLTRVGLDIGKVWVADDGAAVAVWTTPESVEAGAVFAEIGPRMAELSGSRLAAQQQMEGLLAPHRPKEPAWFLATVGVSPDHQGKGLGSAVVLPGVEAAERAGVPAFLETSAPRNLPFYERLGFTVTADVEVPEGPRTWCMTRKPGA",(+),,
"041416-N03 (protein, Polynucleotide encoding a Synthetic Immune Receptor (SIR)) MALPVTALLLPLALLLHAARPDIVMTQSHKFMSTSVGDRVSVTCKASQNVGNNVAWYQQKPGQSPKVLIYSASYRYSGVPDRFTGSGSGTDFTLTISNVQSEDLAEYFCQQYNTYPFTFGSGTKLEIKLEGKPIPNPLLGLDSTGSGEDLKNVFPPEVAVFEPSKAEIAHTQKATLVCLATGFYPDHVELSWWVNGKEVHSGVCTDPQPLKEQPALNDSRYCLSSRLRVSATFWQNPRNHFRCQVQFYGLSENDEWTQDRAKPVTQIVSAEAWGRADCGITSASYHQGVLSATILYEILLGKATLYAVLVSALVLMAMVKRKDSRGRAKRSGSGATNFSLLKQAGDVEENPGPTSMDWIWRILFLVGAATGAHSFEEVQLEESGGGLVQPGGSMKLSCVASGFTFSNYWMNWVRQSPEKGLEWVAEIRFKSHNYATHFAESVKGRFTISRDDSKSSVYLQMNNLRAEDTGIYYCTRRIGNSDYDWWYFDVWGAGTSVTVSSASTREQKLISEEDGSGTPFPSLAPPIMLLVDGKQQMVVVCLVLDVAPPGLDSPIWFSAGNGSALDAFTYGPSPATDGTWTNLAHLSLPSEELASWEPLVCHTGPGAEGHSRSTQPMHLSGEASTARTCPQEPLRGTPGGALWLGVLRLLLFKLLLFDLLLTCSCLCDPAGPLPSPATTTRLRALGSHRLHPATETGGREATSSPRPQPRDRRWGDTPPGRKPGSPVRAKRSGSGVKQTLNFDLLKLAGDVESNPGPSRGHMTEYKPTVRLATRDDVPRAVRTLAAAFADYPATRHTVDPDRHIERVTELQELFLTRVGLDIGKVWVADDGAAVAVWTTPESVEAGAVFAEIGPRMAELSGSRLAAQQQMEGLLAPHRPKEPAWFLATVGVSPDHQGKGLGSAVVLPGVEAAERAGVPAFLETSAPRNLPFYERLGFTVTADVEVPEGPRTWCMTRKPGA",,RAJI (+/−),
